Here are results for one molecule from PMC4678855 (Nucleic Acids Research, 2015).

Broadly, the stoichiometry N is a count of units in the complex or per binding partner.

In data set [1] the target is B. subtilis β-clamp, cysteine-modified variant (residues 1–380 including the added Ser379–Cys380 dipeptide) (B. subtilis) (UniProt P05649). In words: SAXS.
The data set “SAXS” concerns the molecule itself. In words: SAXS.

B1: B. subtilis MutL C-terminal domain, inactive cysteine-modified variant (residues 433–627; E485C, C531S, C573S, C604S) (domain or fragment, UniProt P49850 433-627, looked up)
chain: SDRVPIMYPIGQMHGTYILAQNENGLYIIDQHAAQERIKYEYFREKVGEVEPCVQEMIVPLTFHYSTNEALIIEQHKQELESVGVFLESFGSNSYIVRSHPAWFPKGEEAELIEEIIQQVLDSKNIDIKKLREEAAIMMSSKGSIKANRHLRNDEIKALLDDLRSTSDPFTSPHGRPIIIHHSTYEMEKMFKRVM
For the molecule B1, the stoichiometry N in data set [1] stood at 1; in the data set “SAXS”, 2.
